Test results from patent US20140322736.

How the values were obtained:
[1] = system: mouse mutant recombinant prethrombin-2
[2] = system: human mutant recombinant prethrombin-2

| Substance | cleavage of the proenzyme [1] | protease activity (fluorescence of the cleaved fluorogenic substrate (p-tosyl-Gly-Pro-Arg)2-rhodamine 110 over time) [2] | protease activity (fluorescence of the cleaved fluorogenic substrate (p-tosyl-Gly-Pro-Arg)2-rhodamine 110 over time) [1] |
| --- | --- | --- | --- |
| α-thrombin immobilized on agarose (Thrombin CleanCleave Kit, Sigma-Aldrich) | Mouse mutant prethrombin-2 was cleaved using Thrombin CleanCleave™ Kit |  |  |
| wild type human α-thrombin (Sigma Aldrich) |  | in the presence of WT human α-thrombin, the protease activity increased considerably with time (FIG. 4, curves a, b), compared to the samples where only WT α-thrombin was added | in the presence of WT human α-thrombin, the protease activity increased considerably with time (FIG. 4, curves a, b), compared to the samples where only WT α-thrombin was added |
